This experiment concerns the target His-tagged BG505 SOSIP.664 trimer with the N185h glycan site removed (HIV (isolate BG505)) (UniProt Q2N0S6). Briefly: SPR; Biacore 3000, 25°C; His-tagged BG505 SOSIP trimers immobilised on the chip by His-tag capture; PGT145 Fab as analyte; kinetic analysis.

B1: PGT145 Fab (Fab, V domains shown)
VH: QVQLVQSGAEVKKPGSSVKVSCKASGNSFSNHDVHWVRQATGQGLEWMGWMSHEGDKTGLAQKFQGRVTITRDSGASTVYMELRGLTADDTAIYYCLTGSKHRLRDYFLYNEYGPNYEEWGDYLATLDVWGHGTAVTVSS
VL: EVVITQSPLFLPVTPGEAASLSCKCSHSLQHSTGANYLAWYLQRPGQTPRLLIHLATHRASGVPDRFSGSGSGTDFTLKISRVESDDVGTYYCMQGLHSPWTFGQGTKVEIK
As usually defined, the stoichiometry N is the number of molecules, sites or subunits per partner or assembly. The molecule B1 showed a stoichiometry N of 0.96.
